# Assay results published in patent US8986682B2, “Method to increase the absorption of unsaturated fatty acids by human infants” (Swedish Orphan Biovitrum AB (publ), priority 2010, dated 2015).
# Read-outs that look alike come from different tables or passages of the source.
# Experiments:
# patients = settings: cited from earlier work
# kittens = settings: 0.1 mg/mL in kitten-formula mixed with cow milk, 5 days; cited from earlier work
# [1] = Specific activity with PNPB substrate, sodium cholate as bile-salt activator; type: biochemical; settings: 20 mM sodium cholate activation solution, 27° C., after HA-HPLC and SE-HPLC purification
# Experimental: Differences in functional properties are observed between rhBSSL-CHO and BSSL-MAM and from rhBSSL-OVI. The specific activity of rhBSSL-CHO is observed to be higher than that of the other forms of BSSL. The specific activities of BSSL-MAM and rhBSSL-OVI are only 80% of that of rhBSSL-CHO based on mass. Each sample is specifically purified by HA-HPLC and SE-HPLC before determination of specific activity. Specific activity is determined using 4-nitrophenyl ester butyric acid (PNPB) as a substrate for BSSL, and detection of the release of 4-nitrophenol. Briefly, a dilution series of rhBSSL (for example, from 20 to 160 ng activity/mL) is prepared in PBS with 0.1% BSA. 200 μl of these rhBSSL solutions is added to 25 μl of an activation solution containing 20 mM sodium cholate (as bile-salt activator) in PBS with 0.1% BSA. These solutions are preincubated in a spectrophotometer at 27° C. for 5 minutes. Just before measuring, 25 μl of a well-mixed substrate solution containing 5 mM PNPB in PBS-Tween is added. The formation of 4-nitrophenol can be detected by its absorbance at 400 nm and the increase in absorbance is measured during 90 seconds. The active amount of BSSL is determined using a standard curve of an rhBSSL reference standard.
# [2] = system: CF patients (aged 12 to 39 years) with PI; settings: single dosing of 0.2 g or 1 g as complement to 25% of regular Creon dosing; cited from earlier work
molecule,measurement,setting,value
agalsidase alfa: recombinant human alpha-galactosidase A produced in a continuous line of human fibroblasts,Patients with presence of IgG,patients; in vivo,55%
agalsidase beta: recombinant human alpha-galactosidase A produced in CHO cells,Patients with presence of IgG,patients; treated patients,almost all patients
"BSSL-MAM: native human milk bile-salt-stimulated lipase (protein, UniProt P19835 21-753, looked up) Bile salt-activated lipase: AKLGAVYTEGGFVEGVNKKLGLLGDSVDIFKGIPFAAPTKALENPQPHPGWQGTLKAKNFKKRCLQATITQDSTYGDEDCLYLNIWVPQGRKQVSRDLPVMIWIYGGAFLMGSGHGANFLNNYLYDGEEIATRGNVIVVTFNYRVGPLGFLSTGDANLPGNYGLRDQHMAIAWVKRNIAAFGGDPNNITLFGESAGGASVSLQTLSPYNKGLIRRAISQSGVALSPWVIQKNPLFWAKKVAEKVGCPVGDAARMAQCLKVTDPRALTLAYKVPLAGLEYPMLHYVGFVPVIDGDFIPADPINLYANAADIDYIAGTNNMDGHIFASIDMPAINKGNKKVTEEDFYKLVSEFTITKGLRGAKTTFDVYTESWAQDPSQENKKKTVVDFETDVLFLVPTEIALAQHRANAKSAKTYAYLFSHPSRMPVYPKWVGADHADDIQYVFGKPFATPTGYRPQDRTVSKAMIAYWTNFAKTGDPNMGDSAVPTHWEPYTTENSGYLEITKKMGSSSMKRSLRTNFLRYWTLTYLALPTVTDQEATPVPPTGDSEATPVPPTGDSETAPVPPTGDSGAPPVPPTGDSGAPPVPPTGDSGAPPVPPTGDSGAPPVPPTGDSGAPPVPPTGDSGAPPVPPTGDSGAPPVPPTGDSGAPPVPPTGDAGPPPVPPTGDSGAPPVPPTGDSGAPPVTPTGDSETAPVPPTGDSGAPPVPPTGDSEAAPVPPTDDSKEAQMPAVIRF",Growth rate versus kittens fed formula alone,kittens,twice
same,"Specific activity relative to that of rhBSSL-CHO, based on mass",[1],80%
"rhBSSL-OVI: recombinant human BSSL produced in / isolated from the milk of transgenic sheep (protein, UniProt P19835 21-753, looked up, produced in transgenic sheep milk) Bile salt-activated lipase: AKLGAVYTEGGFVEGVNKKLGLLGDSVDIFKGIPFAAPTKALENPQPHPGWQGTLKAKNFKKRCLQATITQDSTYGDEDCLYLNIWVPQGRKQVSRDLPVMIWIYGGAFLMGSGHGANFLNNYLYDGEEIATRGNVIVVTFNYRVGPLGFLSTGDANLPGNYGLRDQHMAIAWVKRNIAAFGGDPNNITLFGESAGGASVSLQTLSPYNKGLIRRAISQSGVALSPWVIQKNPLFWAKKVAEKVGCPVGDAARMAQCLKVTDPRALTLAYKVPLAGLEYPMLHYVGFVPVIDGDFIPADPINLYANAADIDYIAGTNNMDGHIFASIDMPAINKGNKKVTEEDFYKLVSEFTITKGLRGAKTTFDVYTESWAQDPSQENKKKTVVDFETDVLFLVPTEIALAQHRANAKSAKTYAYLFSHPSRMPVYPKWVGADHADDIQYVFGKPFATPTGYRPQDRTVSKAMIAYWTNFAKTGDPNMGDSAVPTHWEPYTTENSGYLEITKKMGSSSMKRSLRTNFLRYWTLTYLALPTVTDQEATPVPPTGDSEATPVPPTGDSETAPVPPTGDSGAPPVPPTGDSGAPPVPPTGDSGAPPVPPTGDSGAPPVPPTGDSGAPPVPPTGDSGAPPVPPTGDSGAPPVPPTGDSGAPPVPPTGDAGPPPVPPTGDSGAPPVPPTGDSGAPPVTPTGDSETAPVPPTGDSGAPPVPPTGDSEAAPVPPTDDSKEAQMPAVIRF",Lipid uptake versus Creon alone,[2],more rapid and efficient lipid uptake
same,"Specific activity relative to that of rhBSSL-CHO, based on mass",[1],80%
